This is an account of results in paper PMC6021441, “Structural basis of the correct subunit assembly, aggregation, and intracellular degradation of nylon hydrolase” (Scientific Reports, 2018).

Where “and” joins values, the source holds several entries; their conditions need not be identical. Identical values can stand only once.

In series [1] the target is nylon hydrolase NylCK (wild type, Kocuria), active enzyme: alpha-beta heterodimer (Kocuria). The experiment in a line: AUC; sedimentation velocity (40,000 rpm) and sedimentation equilibrium (14,000 rpm); each NylC enzyme 0.34 mg ml^-1 in phosphate buffer, 20 °C; self-association of the monomer units.
Series [2] concerns the molecule itself. Described as above.
Series [3] concerns the molecule itself. The experiment in a line: crystal structure; sitting-drop vapor diffusion, ammonium sulfate, 0.1 M HEPES pH 7.5, 0.2 M NaCl, 25% glycerol; space group C222_(1), two molecules (A/B dimer) in the asymmetric unit, tetramer by the crystallographic two-fold axis.

By stoichiometry N is commonly meant the number of molecules, sites or subunits per partner or assembly. Consider “nylon hydrolase NylCK (wild type, Kocuria), active enzyme: alpha-beta heterodimer (from UniProt Q79F77 1-266; Q79F77 267-355)”, for which the stoichiometry N in series [1] worked out at 4.

B1: NylCp2-A^137 mutant (L137A), uncleaved precursor (enzyme, Arthrobacter, UniProt Q79F77 1-355, looked up)
chain: MNTTPVHALTDIDGGIAVDPAPRLAGPPVFGGPGNDAFDLAPVRSTGREMLRFDFPGVSIGAAHYEEGPTGATVIHIPAGARTAVDARGGAVGLSGGYDFNHAICLAGGAGYGLEAGAGVSDALLERLEHRTGFAEAQLVSSAVIYDFSARSTAVYPDKALGRAALEFAVPGEFPQGRAGAGMSASAGKVDWDRTEITGQGAAFRRLGDVRILAVVVPNPVGVIVDRAGTVVRGNYDAQTGVRRHPVFDYQEAFAEQVPPVTEAGNTTISAIVTNVRMSPVELNQFAKQVHSSMHRGIQPFHTDMDGDTLFAVTTDEIDLPTTPGSSRGRLSVNATALGAIASEVMWDAVLEAGK
notes: NylCp2 with L137A, obtained as the uncleaved precursor (36 kDa; 355 residues); source: E. coli JM109, purified (ammonium sulfate fractionation, anion-exchange, gel filtration)
Consider B1, for which the “stoichiometry N” value in series [2] stood at 2.

B2: NylCp2-G^122A^137 mutant (D122G/L137A), mixture of precursor and alpha and beta subunits (enzyme, Arthrobacter, UniProt Q79F77 1-355, looked up)
chain: MNTTPVHALTDIDGGIAVDPAPRLAGPPVFGGPGNDAFDLAPVRSTGREMLRFDFPGVSIGAAHYEEGPTGATVIHIPAGARTAVDARGGAVGLSGGYDFNHAICLAGGAGYGLEAGAGVSGALLERLEHRTGFAEAQLVSSAVIYDFSARSTAVYPDKALGRAALEFAVPGEFPQGRAGAGMSASAGKVDWDRTEITGQGAAFRRLGDVRILAVVVPNPVGVIVDRAGTVVRGNYDAQTGVRRHPVFDYQEAFAEQVPPVTEAGNTTISAIVTNVRMSPVELNQFAKQVHSSMHRGIQPFHTDMDGDTLFAVTTDEIDLPTTPGSSRGRLSVNATALGAIASEVMWDAVLEAGK
notes: NylCp2 with D122G and L137A; obtained as a mixture of the uncleaved precursor and the alpha (to N266) and beta (from T267) subunits; Written as the one-chain precursor; part of the sample was cleaved at Asn266/Thr267; source: E. coli JM109, purified (ammonium sulfate fractionation, anion-exchange, gel filtration)
Take B2: in series [2], the “stoichiometry N” value is 3.

B3: nylon hydrolase NylCp2 (wild type, Arthrobacter plasmid pOAD2-encoded NylC), active enzyme: alpha-beta heterodimer (enzyme)
chain 1: MNTTPVHALTDIDGGIAVDPAPRLAGPPVFGGPGNDAFDLAPVRSTGREMLRFDFPGVSIGAAHYEEGPTGATVIHIPAGARTAVDARGGAVGLSGGYDFNHAICLAGGAGYGLEAGAGVSDALLERLEHRTGFAELQLVSSAVIYDFSARSTAVYPDKALGRAALEFAVPGEFPQGRAGAGMSASAGKVDWDRTEITGQGAAFRRLGDVRILAVVVPNPVGVIVDRAGTVVRGNYDAQTGVRRHPVFDYQEAFAEQVPPVTEAGN
chain 2: TTISAIVTNVRMSPVELNQFAKQVHSSMHRGIQPFHTDMDGDTLFAVTTDEIDLPTTPGSSRGRLSVNATALGAIASEVMWDAVLEAGK
notes: NylCp2, alpha subunit (27 kDa) made by autocleavage of the 355-residue precursor between Asn266 and Thr267; NylCp2, beta subunit (9 kDa) made by autocleavage of the 355-residue precursor between Asn266 and Thr267; also called wild-type NylCp2; monomer molecule A-D; source: E. coli JM109, purified (ammonium sulfate fractionation, anion-exchange, gel filtration)
B3: the “stoichiometry N” value in series [3] is 4; in series [2] it was 3 and 2.

B4: nylon hydrolase NylCA (wild type, Agromyces), active enzyme: alpha-beta heterodimer (enzyme)
chain 1: MNTTPVHALTDIDGGIAVDPAPRLAGPPVFGGPGNDAFDLAPVRSTGREMLRFDFPGVSIGAAHYEEGPTGATVIHIPAGARTAVDARGGAVGLSGGYDFNHAICLAGGASYGLEAGAGVSGALLERLEYRTGFAEAQLVSSAVIYDFSARSTAVYPDKALGRAALEFAVPGEFPQGRAGAGMSASAGKVDWDRTEITGQGAAFRRLGDVRILAVVVPNPVGVIMDRAGTVVRGNYDAQTGVRRHPVFDYQEAFAEQVPPVTEAGN
chain 2: TTISAIVTNVRMSPVELNQFAKQVHSSMHRGIQPFHTDMDGDTLFAVTTDEIDLPTTPGSSRGRLSVNATALGAIASEVMWDAVLEAGK
notes: NylCA of Agromyces, alpha subunit; NylCA of Agromyces, beta subunit; source: E. coli clone (plasmid pSKRC4), purified to homogeneity as previously reported
Regarding B4, in series [2], the “stoichiometry N” value was 4.

B5: NylCp2-G^122Y^130A^36Q^263 mutant enzyme (D122G/H130Y/D36A/E263Q), alpha-beta heterodimer (enzyme, Arthrobacter)
chain 1: MNTTPVHALTDIDGGIAVDPAPRLAGPPVFGGPGNAAFDLAPVRSTGREMLRFDFPGVSIGAAHYEEGPTGATVIHIPAGARTAVDARGGAVGLSGGYDFNHAICLAGGAGYGLEAGAGVSGALLERLEYRTGFAELQLVSSAVIYDFSARSTAVYPDKALGRAALEFAVPGEFPQGRAGAGMSASAGKVDWDRTEITGQGAAFRRLGDVRILAVVVPNPVGVIVDRAGTVVRGNYDAQTGVRRHPVFDYQEAFAEQVPPVTQAGN
chain 2: TTISAIVTNVRMSPVELNQFAKQVHSSMHRGIQPFHTDMDGDTLFAVTTDEIDLPTTPGSSRGRLSVNATALGAIASEVMWDAVLEAGK
notes: NylCp2 alpha subunit with four substitutions; NylCp2 beta subunit; also called NylC-G^122Y^130A^36Q^263; source: E. coli JM109, purified (ammonium sulfate fractionation, anion-exchange, gel filtration)
For B5, the “stoichiometry N” value in series [2] came to 4.

B6: NylCp2-V^122 mutant enzyme (D122V), alpha-beta heterodimer (enzyme, Arthrobacter)
chain 1: MNTTPVHALTDIDGGIAVDPAPRLAGPPVFGGPGNDAFDLAPVRSTGREMLRFDFPGVSIGAAHYEEGPTGATVIHIPAGARTAVDARGGAVGLSGGYDFNHAICLAGGAGYGLEAGAGVSVALLERLEHRTGFAELQLVSSAVIYDFSARSTAVYPDKALGRAALEFAVPGEFPQGRAGAGMSASAGKVDWDRTEITGQGAAFRRLGDVRILAVVVPNPVGVIVDRAGTVVRGNYDAQTGVRRHPVFDYQEAFAEQVPPVTEAGN
chain 2: TTISAIVTNVRMSPVELNQFAKQVHSSMHRGIQPFHTDMDGDTLFAVTTDEIDLPTTPGSSRGRLSVNATALGAIASEVMWDAVLEAGK
notes: NylCp2 alpha subunit with D122V; NylCp2 beta subunit; source: E. coli JM109, purified (ammonium sulfate fractionation, anion-exchange, gel filtration)
As to B6, the “stoichiometry N” value in series [3] was 4.

B7: NylCp2-R^122 mutant enzyme (D122R), alpha-beta heterodimer (enzyme, Arthrobacter)
chain 1: MNTTPVHALTDIDGGIAVDPAPRLAGPPVFGGPGNDAFDLAPVRSTGREMLRFDFPGVSIGAAHYEEGPTGATVIHIPAGARTAVDARGGAVGLSGGYDFNHAICLAGGAGYGLEAGAGVSRALLERLEHRTGFAELQLVSSAVIYDFSARSTAVYPDKALGRAALEFAVPGEFPQGRAGAGMSASAGKVDWDRTEITGQGAAFRRLGDVRILAVVVPNPVGVIVDRAGTVVRGNYDAQTGVRRHPVFDYQEAFAEQVPPVTEAGN
chain 2: TTISAIVTNVRMSPVELNQFAKQVHSSMHRGIQPFHTDMDGDTLFAVTTDEIDLPTTPGSSRGRLSVNATALGAIASEVMWDAVLEAGK
notes: NylCp2 alpha subunit with D122R; NylCp2 beta subunit; source: E. coli JM109, purified (ammonium sulfate fractionation, anion-exchange, gel filtration)
B7: in series [3], the “stoichiometry N” value was 4.

B8: NylCp2-K^122 mutant enzyme (D122K), alpha-beta heterodimer (enzyme, Arthrobacter)
chain 1: MNTTPVHALTDIDGGIAVDPAPRLAGPPVFGGPGNDAFDLAPVRSTGREMLRFDFPGVSIGAAHYEEGPTGATVIHIPAGARTAVDARGGAVGLSGGYDFNHAICLAGGAGYGLEAGAGVSKALLERLEHRTGFAELQLVSSAVIYDFSARSTAVYPDKALGRAALEFAVPGEFPQGRAGAGMSASAGKVDWDRTEITGQGAAFRRLGDVRILAVVVPNPVGVIVDRAGTVVRGNYDAQTGVRRHPVFDYQEAFAEQVPPVTEAGN
chain 2: TTISAIVTNVRMSPVELNQFAKQVHSSMHRGIQPFHTDMDGDTLFAVTTDEIDLPTTPGSSRGRLSVNATALGAIASEVMWDAVLEAGK
notes: NylCp2 alpha subunit with D122K; NylCp2 beta subunit; source: E. coli JM109, purified (ammonium sulfate fractionation, anion-exchange, gel filtration)
Consider B8, for which the “stoichiometry N” value in series [3] amounted to 4.

B9: NylCp2-Y^130 mutant enzyme (H130Y), alpha-beta heterodimer (enzyme, Arthrobacter)
chain 1: MNTTPVHALTDIDGGIAVDPAPRLAGPPVFGGPGNDAFDLAPVRSTGREMLRFDFPGVSIGAAHYEEGPTGATVIHIPAGARTAVDARGGAVGLSGGYDFNHAICLAGGAGYGLEAGAGVSDALLERLEYRTGFAELQLVSSAVIYDFSARSTAVYPDKALGRAALEFAVPGEFPQGRAGAGMSASAGKVDWDRTEITGQGAAFRRLGDVRILAVVVPNPVGVIVDRAGTVVRGNYDAQTGVRRHPVFDYQEAFAEQVPPVTEAGN
chain 2: TTISAIVTNVRMSPVELNQFAKQVHSSMHRGIQPFHTDMDGDTLFAVTTDEIDLPTTPGSSRGRLSVNATALGAIASEVMWDAVLEAGK
notes: NylCp2 alpha subunit with H130Y; NylCp2 beta subunit; source: E. coli JM109, purified (ammonium sulfate fractionation, anion-exchange, gel filtration)
With B9, the “stoichiometry N” value in series [3] stood at 4.

B10: NylCp2-G^122Y^130 mutant enzyme (D122G/H130Y), alpha-beta heterodimer (enzyme, Arthrobacter)
chain 1: MNTTPVHALTDIDGGIAVDPAPRLAGPPVFGGPGNDAFDLAPVRSTGREMLRFDFPGVSIGAAHYEEGPTGATVIHIPAGARTAVDARGGAVGLSGGYDFNHAICLAGGAGYGLEAGAGVSGALLERLEYRTGFAELQLVSSAVIYDFSARSTAVYPDKALGRAALEFAVPGEFPQGRAGAGMSASAGKVDWDRTEITGQGAAFRRLGDVRILAVVVPNPVGVIVDRAGTVVRGNYDAQTGVRRHPVFDYQEAFAEQVPPVTEAGN
chain 2: TTISAIVTNVRMSPVELNQFAKQVHSSMHRGIQPFHTDMDGDTLFAVTTDEIDLPTTPGSSRGRLSVNATALGAIASEVMWDAVLEAGK
notes: NylCp2 alpha subunit with D122G and H130Y; NylCp2 beta subunit; also called NylC-G^122Y^130; source: E. coli JM109, purified (ammonium sulfate fractionation, anion-exchange, gel filtration)
For B10, in series [3], the “stoichiometry N” value amounted to 4.

B11: NylCp2-G^122 mutant enzyme (D122G), alpha-beta heterodimer (enzyme, Arthrobacter)
chain 1: MNTTPVHALTDIDGGIAVDPAPRLAGPPVFGGPGNDAFDLAPVRSTGREMLRFDFPGVSIGAAHYEEGPTGATVIHIPAGARTAVDARGGAVGLSGGYDFNHAICLAGGAGYGLEAGAGVSGALLERLEHRTGFAELQLVSSAVIYDFSARSTAVYPDKALGRAALEFAVPGEFPQGRAGAGMSASAGKVDWDRTEITGQGAAFRRLGDVRILAVVVPNPVGVIVDRAGTVVRGNYDAQTGVRRHPVFDYQEAFAEQVPPVTEAGN
chain 2: TTISAIVTNVRMSPVELNQFAKQVHSSMHRGIQPFHTDMDGDTLFAVTTDEIDLPTTPGSSRGRLSVNATALGAIASEVMWDAVLEAGK
notes: NylCp2 alpha subunit with D122G; NylCp2 beta subunit; also called Gly122 enzyme; source: E. coli JM109, purified (ammonium sulfate fractionation, anion-exchange, gel filtration)
On to B11, for which the “stoichiometry N” value in series [3] was 4.
